Assay results published in PMC4803055.

Molecular target: T1, Mte1 (YGR042W) (Saccharomyces cerevisiae, UniProt P53227 1-271)
T1 sequence: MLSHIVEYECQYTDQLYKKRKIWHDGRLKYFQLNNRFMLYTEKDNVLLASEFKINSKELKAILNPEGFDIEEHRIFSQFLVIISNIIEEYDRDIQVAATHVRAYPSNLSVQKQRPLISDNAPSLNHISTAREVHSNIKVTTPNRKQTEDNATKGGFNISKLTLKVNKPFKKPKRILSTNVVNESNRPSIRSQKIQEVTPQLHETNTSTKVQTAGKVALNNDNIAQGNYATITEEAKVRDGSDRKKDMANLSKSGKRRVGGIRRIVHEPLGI
Assay: EMSA

B1: ssDNA (oligo 1) (ssDNA)
DNA: AGCTATGACCATGATTACGAATTGCTTAATTCGTGCAGGCATGGTAGCT
- Kd: 16 ± 3 nM
